Source: patent publication EP1514558A1

Biological target: recombinant MARK2, expressed in E. coli (Rattus norvegicus (Rat)) (UniProt O08679)
Assay: cell-based or functional assay

Sequence of recombinant MARK2, expressed in E. coli (Rattus norvegicus (Rat)) (O08679 1-722, tags left off): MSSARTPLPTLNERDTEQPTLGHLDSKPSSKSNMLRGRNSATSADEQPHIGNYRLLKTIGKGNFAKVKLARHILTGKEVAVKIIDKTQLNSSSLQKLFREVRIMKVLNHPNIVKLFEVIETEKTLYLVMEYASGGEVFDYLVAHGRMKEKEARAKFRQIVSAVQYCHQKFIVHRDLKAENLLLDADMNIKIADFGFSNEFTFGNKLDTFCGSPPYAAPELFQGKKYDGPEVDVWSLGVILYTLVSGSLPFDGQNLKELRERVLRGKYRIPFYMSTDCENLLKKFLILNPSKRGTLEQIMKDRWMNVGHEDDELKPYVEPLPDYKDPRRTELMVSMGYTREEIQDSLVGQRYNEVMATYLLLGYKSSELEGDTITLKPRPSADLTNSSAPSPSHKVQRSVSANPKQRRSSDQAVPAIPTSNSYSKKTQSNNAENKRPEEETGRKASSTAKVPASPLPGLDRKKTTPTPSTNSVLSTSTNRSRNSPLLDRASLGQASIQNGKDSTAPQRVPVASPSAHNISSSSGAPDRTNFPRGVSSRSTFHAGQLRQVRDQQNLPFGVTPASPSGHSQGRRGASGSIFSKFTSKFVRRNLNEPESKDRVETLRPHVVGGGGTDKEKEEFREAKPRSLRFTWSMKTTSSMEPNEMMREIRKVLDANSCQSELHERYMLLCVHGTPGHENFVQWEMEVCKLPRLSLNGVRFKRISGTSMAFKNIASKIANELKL

Row | activation of MARK2 by fraction 14 [fold] | activation of MARK2 (Fig. 4B) [fold] | Substance
1 | 10 |  | MARK-activating factor (MAF) purified from porcine brain
2 |  | 10 | recombinant MARKK (His10-tagged at the N-terminus), expressed in Sf9 cells (from UniProt O88664 1-1001) (enzyme)
